Experimental data taken from article doi:10.1101/2023.10.05.560930 (bioRxiv, 2023).
Where no end group is shown, it is not given here. Cy5 = Cy5 fluorophore

Tests used:
Test in all cases: fluorescence polarisation
GABARAP(1-116) = GABARAP(1-116) (human, UniProt O95166 1-116)
LC3C(1-126) = LC3C(1-126) (human, UniProt Q9BXW4 1-126)
[…]1(1-117) = […]1(1-117) (human, UniProt Q9H0R8 1-117)
LC3A(1-120) = LC3A(1-120) (human, UniProt Q9H492 1-120)
[…]2(1-117) = […]2(1-117) (human, UniProt P60520 1-117)
LC3B(1-120) = LC3B(1-120) (human, UniProt Q9GZQ8 1-120)

Measured: binding result

SDNSSGGDDDWTHLSSK-Cy5 [p62-LIR peptide linked to a Cy5 fluorophore]
binds: GABARAP(1-116) | LC3C(1-126) | […]1(1-117) | LC3A(1-120) | […]2(1-117) | LC3B(1-120)
